Measurements reported in article PMC6733660 (Virology, 2019).
Like-named read-outs stand apart in the source and are kept apart here.

What was measured:
Test in all cases: ELISA
Pep-8 (gp350 aa 142–161) = target: T1, Pep-8 (gp350 aa 142–161) (Epstein-Barr virus, strain B95-8)
T1 chain: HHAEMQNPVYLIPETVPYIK

[1] = target: T2, recombinant EBV gp350 ectodomain (aa 4–863) (Epstein-Barr virus, strain  …, UniProt P03200-1)
[2] = target: T2, recombinant EBV gp350 ectodomain (aa …); remark: listed apart in the source

T2 sequence (P03200 4-863): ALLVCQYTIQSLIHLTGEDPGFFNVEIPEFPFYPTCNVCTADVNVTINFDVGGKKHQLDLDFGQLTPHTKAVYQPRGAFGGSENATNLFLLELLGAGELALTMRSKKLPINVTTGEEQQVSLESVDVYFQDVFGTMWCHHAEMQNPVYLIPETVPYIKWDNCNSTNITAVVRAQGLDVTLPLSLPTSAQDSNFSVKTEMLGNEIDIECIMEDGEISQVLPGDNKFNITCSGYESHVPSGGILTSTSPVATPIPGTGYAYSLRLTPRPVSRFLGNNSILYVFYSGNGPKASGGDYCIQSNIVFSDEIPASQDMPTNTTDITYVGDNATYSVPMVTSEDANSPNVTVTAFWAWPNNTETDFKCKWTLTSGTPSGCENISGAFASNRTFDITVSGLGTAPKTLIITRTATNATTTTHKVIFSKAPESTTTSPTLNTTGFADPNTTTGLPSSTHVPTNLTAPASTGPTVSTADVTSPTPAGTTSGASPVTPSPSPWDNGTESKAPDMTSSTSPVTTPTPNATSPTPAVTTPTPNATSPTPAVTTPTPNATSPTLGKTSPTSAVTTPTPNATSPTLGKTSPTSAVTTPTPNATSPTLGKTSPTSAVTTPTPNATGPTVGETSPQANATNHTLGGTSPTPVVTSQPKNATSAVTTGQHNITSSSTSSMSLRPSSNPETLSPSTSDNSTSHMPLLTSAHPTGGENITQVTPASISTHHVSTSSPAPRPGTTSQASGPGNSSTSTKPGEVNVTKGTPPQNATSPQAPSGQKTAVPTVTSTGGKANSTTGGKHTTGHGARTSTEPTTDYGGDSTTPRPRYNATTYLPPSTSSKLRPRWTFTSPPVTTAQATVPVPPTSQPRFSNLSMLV

B1: humanized 72A1 (h72A1) (antibody, V domains shown)
VH: EVQLVESGGGLVQPGGSLRLSCAASGSSFTDYTMNWMRQSPGKGLEWIGLINPYNGGTRYADSVKGRATLSLDKSKNTAYLQMNSLRAEDTAIYYCAGGLRRVNWFAYWGQGTLVTVSS
VL: DAQLTQSPILLSASVGDRVTITCRSSTGAVTTSNYANWVQERTNGSFRGLIGGTNNRVPGVPSRFSGSLSGDDATLTISSLQPEDEADYFCVLWHSNHWVFGAGTKVEIK
- binding result (Pep-8 (gp350 aa 142–161)): binds
- binding result [1]: binds

B2: HB17 (antibody, V domains shown)
VH: ELVIPGASVKVSCKASGYTFTSYWIHWVKQWPGQGLEWIGEINPNNGHTNYNEKFKSKATLTVDKSSSTAYMQLSSLTSEDSAVYYCARNLFYYSRPDYWGQGTSVTVSS
VL: SLSASLGDRVTISCRASQDIGNYLNWYQQKPDGTIKLLIYYTSRLHSGVPSRFSGSGSGTDYSLTISNLEEEDIATYFCQQGNTLPPTFGGGTKLEIK
- binding result [2]: binds

B3: HB3 (antibody, V domains shown)
VH: ELVRPGASVKLSCKASGYTFASYWMQWVKQWPGQGLEWIGEINPNNGHTNYNERFKNKASLTVDKSSSTAYMQLSSLTSEDSAVYYCARNLYYYGRPDYWGQGTSVTVSS
VL: SLSASLGDRVTISCRASQDIGNYLNWYQQKPDGTIKLLIYYTSRLHSGVPSRFSGSGSGTDYSLTISNLEEEDIATYFCQQGNTLPPTFGGGTKLEIK
- binding result [2]: binds

B4: HB10 (antibody, V domains shown)
VH: ELVRPGASVKLSCKASGYTFTSYWMHWVKQWPGQGPEWIGEINPSNGHTNYNERFKNKATLTVDKSSSTAYMQLSSLTSEDSAVYYCARNLYYYGRPDYWGQGTSVTVSS
VL: SLSASLGDRVTISCRASQDIGNYLNWYQQKPDGTVKLLIYYTSRLHSGVPSRFSGSGSGTDYSLTISNLEEEDIATYFCQQGNTLPPTFGGGTKLEIK
- binding result [2]: binds

B5: HB20 (antibody, V domains shown)
VH: ELVKPGASVKLSCKASGYTFTSYWIQWVKQRPGQGLEWIGEINPTNGHTNYNEKFKTKATLTVDKSSSTAYMRLSSLTSEDSAVYYCARNLYYYGRPDYWGQGTSVTVSS
VL: SLSASLGDRVTISCRASQDIGNYLNWYQQKPDGTVKLLIYYTSRLHSGVPSRFSGSGSGTDYSLTISNLEQEDIATYFCQQGNALPPTFGGGTKLEIK
- binding result (Pep-8 (gp350 aa 142–161)): binds

B6: murine 72A1 (m72A1) (antibody, V domains shown)
VH: EVQLQQSGPELVKPGTSMKISCKASGSSFTDYTMNWMKQSHGKNLEWIGLINPYNGGTRYNQKFKGKATLTLDKSSSTAYMEVLSLTSEDSAVYYCAGGLRRVNWFAYWGQGTLVSVSA
VL: QAVLTQESALTTSPGETVTLTCRSSTGAVTTSNYANWVQEKPDHLFTGLIGGTNNRVPGVPARFSGSLIGDKAALTITGAQTEDEAIYFCVLWHSNHWVFGGGTKLTVL
- binding result (Pep-8 (gp350 aa 142–161)): binds

B7: HB7 (antibody, V domains shown)
VH: ELVRPGASVKLSCKALGYTFTDYEMHWVKQTPVHGLEWIGTISPGRSGTAYNQKFKGKATLTADKSSRTAYMELNSLTSEDSAVYYCSRYGHPSYLDVWGAGTTVTVSS
VL: FMSTSVGDRVNITCKASQSVGNAVAWFQQKPGQSPKLLIYSASNRYTGIPDRFTGSGSGTDFTLTCNNMQSEDLADYFCQQYSSYPLTFGAGTKLELK
- binding result [2]: binds

B8: HB11 (antibody, V domains shown)
VH: SLVKPSQTLSLTCSVTGDSITSGFWNWIRKFPGNKLEYMGYISYSGSTYYNPSLKSRISITRDTSKNQYYLQLNSVTTEDTATYYCARGNGGNYDWYFDVWGAGTTVTVSS
VL: IMSASLGEKVTMSCRASSSVNFMNWYQQKSDDSPKLLIYYISNLAPGVPARFSGSGSGNSYSLTISGMEGEDAATYYCQQFTSSPSWTFGGGTKLEIK
- binding result (Pep-8 (gp350 aa 142–161)): binds

B9: HB5 (antibody, V domains shown)
VH: ELVRPGASVKISCKAFGYTFTNHNINWVKQRPGQGLDWIGYINPYNDYTSYNQKFKGKATLTVDKSSNTAYMELSSLTSEDSAVYYCARSEGWLRRGAWFAYWGQGTLVTVSA
VL: ILSVSPGERVSFSCRASQSIGTSIHWYQQRTNDSPRLLIKYASESISGIPPRFSGSGSGTDFTLSINSVESEDIADYHCQQSNSWPMLTFGAGTKLELK
- binding result (Pep-8 (gp350 aa 142–161)): binds

B10: HB14 (antibody, V domains shown)
VH: SGAELVRPGASVNLSCKALGYTFTDYEMHWVKQTPVYGLEWIGTIHPRRGGTAYNQRFKGKAALTADKSSSTAYMELSSLTSEDSAVYYCARYGYPWYFDVWGAGTTVTVSS
VL: SLPVSLGDQASISCRSSQSIVHDNGNTYLEWYLQKPGQSPKLLIYKVSNRFSGVLDKFSGSGSGTDFTLKISRVEAEDLGIYYCFQGSHVPPTFGGGTKLEIK
- binding result [2]: binds

B11: HB22 (antibody, V domains shown)
VH: GLVAPSQSLSITCTVSGFSLTNYGIHWVRQPPGKGLEWLVVIWSDGSTIYNSALKSRLSISKDNSKSQVFLKMNSLQTDDTAMYYCARNYYGNSYPAWFAYWGQGTLVTVSA
VL: SLPVSLGDQASISCRSSQSIVHSNGNTYLEWYLQKPGQSPKLLIYKVSNRFSGVPDRFSGSGSGTDFTLRISRVEAEDLGVYYCFQGSHVPWTFGGGTKLEIK
- binding result [2]: binds

B12: HB8 (antibody, V domains shown)
VH: ELKKPGETVKISCKASGYSFTNYGMNWVKQAPGKGLKWMGWINTYTGEPTYADDFKGRFAFSLETSASTAFLQINNLKNEDTATYLCARYYYGSVYSAWFAYWGQGTLVTVSA
VL: LSLPVSLGDQASISCRSSQSIVHSNGNTYLEWYLQKAGQSPKLLIYKVSNRFSGVPDRFGGSGSGTDFTLKISRVEAEDLGVYYCFQGSHVPYTFGGGTKLEIK
- binding result [2]: binds

B13: HB9 (antibody, V domains shown)
VH: GGLVKPGGSLKLSCAASGFTFSSYTMSWVRQTPEKRLEWVATISSGGSYIYYPDSVKGRFTISRDNAKNTLYLQMSSLKSEDTAIYYCTREDFYYGSSYGFFDVWGAGTTVTVSS
VL: LSLPVSLGDQASISCRSSQSIVHSNGNTYLEWYLQKAGQSPKLLIYKVSNRFSGVPDRFGGSGSGTDFTLKISRVEAEDLGVYYCFQGSHVPYTFGGGTKLEIK
- binding result [2]: binds

B14: HB2 (antibody, V domains shown)
VH: ELKKPGETVKISCKASGYTFTAYSMHWVKLTPGKGLKWMGWINTKTGEPTYADDFKGRFAFSLETSASTAYLQINNLKNEDTATYFCAPYGYALDYWGQGTSVTVSS
VL: ILSASPGEKVTMTCRATSSVNYMHWYQQKPGSSPKPWIYATSNLASGVPARFSGSGSGTSYSLTISRVEAEDAATYYCQQWSSNPPTFGAGTKLELK
- binding result [2]: binds

B15: HB6 (antibody, V domains shown)
VH: ELRKPGETVKISCKASGYTFTDYSMHWVKQTPGKGLKWMGWINTRTGEPRYADDFKGRFAFSLETSASTAYLQINNLKNEDTATYFCAPYGYALDYWGQGTSVTVSS
VL: ILSASPGEKVTMTCRATSSVNYMHWYQQKPGSSPKPWIYATSNLASGVPARFSGSGSGTSYSLTISRVEAEDAATYYCQQWSSNPPTFGAGTKLELK
- binding result [2]: binds
